Molecular target: T1, recombinant human PD-1-Fc (GenScript) (human, UniProt Q15116 25-167, limits assumed)
T1 construct: Bought reagent (GenScript); not shown: Fc part of the bought fusion
Assay: sandwich ELISA; PD-1-Fc coated (200 ng/mL), purified trap protein 0-40 µg/mL, anti-His-tag-HRP detection
Method: FIG. 2A-2E depict characterization of trap protein. […] (2D and 2E) Binding ability of trap to PD-1 and TGF-β using sandwich ELISA, wherein purified trap protein was added to PD-1-Fc-coated or TGF-β-coated plates, followed by detection by anti-His-tag antibody conjugated with HRP.
The binding ability of trap protein to PD-1 and TGFβ protein was evaluated by sandwich ELISA, wherein recombinant human PD-1-Fc (GenScript) or […] protein (R&D Systems) (200 ng/mL) was coated on the plates, followed by purified trap protein (0-40 μg/mL) detected by anti-6×HIS TAG® antibody-HRP (1:500 diluted, Abcam).

T1 sequence (Q15116 25-167 limits assumed): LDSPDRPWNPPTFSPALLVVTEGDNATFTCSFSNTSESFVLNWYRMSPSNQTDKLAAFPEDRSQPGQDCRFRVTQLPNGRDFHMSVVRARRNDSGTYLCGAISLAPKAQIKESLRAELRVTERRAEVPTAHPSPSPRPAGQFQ

B1: trap protein labeled with a His-tag (anti-PD-1 scFv fused to a TGF-β-binding sequence of TGF-βRII, produced in transfected 293T cells) (other, not shown: small tags and cut ends)
chain: DIVLTQSPATLSLSPGERATLSCRASKSVSTSGFNYMHWYQQKPGQAPRLLIFLASNLASGVPARFSGSGSGTDFTLTISSLEPEDFAVYYCQHGRELPLTFGQGTKLEIGGGGSGGGGSGGGGSQVQLVQSGAEVKKPGASVKVSCKASGYTFTNYYMYWVRQAPGQGLEWIGGINPSNGGTNFNEKFKNKATMTVDKSTSTAYMELSSLRSEDTAVYYCTRRDYNYDGGFDYWGQGTLVTVSSGGGGSGGGGSTIPPHVQKSVNNDMIVTDNNGAVKFPQLCKFCDVRFSTCDNQKSCMSNCSITSICEKPQEVCVAVWRKNDENITLETVCHDPKLPYHDFILEDAASPKCIMKEKKKPGETFFMCSCSSDECNDNIIFSEEYNTSNPD
notes: Western blot gives 56 kDa; The text says the scFv derives from antibody 5C4; also called bifunctional trap protein; purified trap protein
- binding result: binds
